Substitutions are numbered along the chain they refer to. Names and notes keep the numbering of the source.

Data set [1] deals with the molecule itself. The data set is described as follows: crystal structure; hanging drop, 0.2 M NaCl, 0.1 M Bis-Tris pH 5.5, 20–23% PEG 3350; apo crystals and crystals soaked with 10 mM MgCl2 and 10 mM nucleotide; two mtPAP molecules in the asymmetric unit.
Data set [2] concerns the molecule itself. The data set is described as follows: SEC; Superdex-200 elution profiles of WT and mutated mtPAP proteins.

B1: chicken mitochondrial poly(A) RNA polymerase, mature wild type (residues 37–568) (enzyme, Gallus gallus, UniProt F1NBW0 37-568, looked up)
chain: AGGAEETDAEVSARKKTFTEVQTERLEQADRSVLIKCPSKLNEKKLLQYLSSHGKIDNYFFFENRGIHALIEFSEKSSVASLQAVTGIPKAAEHHVVPYKSRLFTFTLKNPGSQAAEERPVKISPQSHIPVNELIPKLCHADSISSQMYILLNEYQLTEENIKLRYLACSLVRDFARAYFPDSTVKPFGSSVNTFGKLGCDVDMFLDFHDIQKHATKMKKGPFEMEYQMKRLPSERLATQKILSIIGDCLDNFGPGYSSVQKILNARCPLVKFSHQPTGFQCDLSVSNSIAIRCSELLYIYGCLDPRVRALVFSLRCWARVHGLTNSVPGTWITNFSLTMMIMFFLQKRSPPIIPTLDQLKELADEKDKHVIGGYDCSFVSDLSKIKPTKNTETLDELLCDFFQYFGNFDFRKNSLNLRKGKEVNKPESSPLYIWNPFEQDLNISKNVNQPQLEKFVAMARESAWILQKEDKTQQMINKEPWGLAAVLIPFGKSNPNTMKSRTKGIGSETIKSLLDSLKLSDANNLQKAVGK
notes: Expression construct pNIC28-BsaI; also called mtPAP; WT mtPAP; source: E. coli KRX/pRARE2, purified (HisTrap, TEV cleavage, HiTrap Heparin)
Consider B1, for which the stoichiometry N (as a rule, a count of units in the complex or per binding partner) in data set [1] was determined as 2.

B2: chicken mtPAP N472D mutant (residues 37–568) (enzyme, Gallus gallus, UniProt F1NBW0 37-568, looked up)
chain: B1 chain with N436D
notes: mitochondrial poly(A) polymerase (mtPAP), Gallus gallus, residues 37-568, N472D (counterpart of human N478D); Purified by the same procedure as the wild type; also called N472D mtPAP; SPAX4 N472D mtPAP mutant; source: E. coli KRX/pRARE2, purified (HisTrap, TEV cleavage, HiTrap Heparin)
For B2, the binding result in data set [1] is given as “binds”.

B3: chicken mtPAP R272E mutant (enzyme, Gallus gallus, UniProt F1NBW0 37-568, looked up)
chain: B1 chain with R236E
notes: mitochondrial poly(A) polymerase (mtPAP), Gallus gallus, residues 37-568, R272E
On to B3, for which, in data set [2], the binding result is “binds”.

B4: chicken mtPAP triple mutant K76E, K80–81E (enzyme, Gallus gallus, UniProt F1NBW0 37-568, looked up)
chain: B1 chain with K40E, K44E, K45E
notes: mitochondrial poly(A) polymerase (mtPAP), Gallus gallus, residues 37-568, charge-reversal triple mutant; The methods list K80–81E and K76E apart; the results call it a triple mutant
For B4, the binding result in data set [2] was “binds”.

B5: chicken mtPAP K112E mutant (enzyme, Gallus gallus, UniProt F1NBW0 37-568, looked up)
chain: B1 chain with K76E
notes: mitochondrial poly(A) polymerase (mtPAP), Gallus gallus, residues 37-568, K112E
As to B5, the binding result in data set [2] was “binds”.
